Here are results for one molecule from PMC11109945.

This assay concerns the target T1, GST-WSB2 WDR (human).
T1 sequence (Q9NYS7 whole entry, looked up): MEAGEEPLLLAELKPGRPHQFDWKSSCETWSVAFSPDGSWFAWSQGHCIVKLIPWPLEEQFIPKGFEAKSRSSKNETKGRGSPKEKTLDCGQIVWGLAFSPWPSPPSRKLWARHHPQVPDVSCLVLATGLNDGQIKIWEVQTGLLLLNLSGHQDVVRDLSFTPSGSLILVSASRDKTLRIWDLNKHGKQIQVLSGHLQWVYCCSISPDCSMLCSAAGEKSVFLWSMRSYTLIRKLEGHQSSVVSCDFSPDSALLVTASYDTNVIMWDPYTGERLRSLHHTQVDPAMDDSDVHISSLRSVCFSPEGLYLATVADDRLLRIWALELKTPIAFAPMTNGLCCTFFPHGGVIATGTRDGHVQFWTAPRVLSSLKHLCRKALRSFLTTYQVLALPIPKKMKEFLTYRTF
The experiment in a line: pull-down + far-Western, overlay or dot blot; about 3 ug glutathione beads-bound GST-WSB2 WDR with 1.8 nmol biotin-labeled RelA peptide in 500 ul GST binding buffer, 4°C, 1 h; washed, eluted with 20 mM GSH, denatured, spotted on nitrocellulose; anti-biotin and anti-GST.

Ends that are not written are not given here. * marks the point of attachment. Biotin = O=C1N[C@H]2[C@H](CS[C@H]2CCCCC(=O)*)N1

For Biotin-TFKSIMK(Me)K(Me)SPFSG [biotin-labeled K314/315 monomethylated RelA peptide (a.a. 308-320)], the fold affinity against the unmethylated peptide lay within 3 to 4 fold.
